Laboratory results as given in article PMC3461516 (The Journal of Cell Biology, 2012).

Molecular target: His6-Mad2 (recombinant human Mad2) (human, UniProt Q13257 1-205)
Assay: pull-down

Chain of His6-Mad2 (recombinant human Mad2) (Q13257 whole entry): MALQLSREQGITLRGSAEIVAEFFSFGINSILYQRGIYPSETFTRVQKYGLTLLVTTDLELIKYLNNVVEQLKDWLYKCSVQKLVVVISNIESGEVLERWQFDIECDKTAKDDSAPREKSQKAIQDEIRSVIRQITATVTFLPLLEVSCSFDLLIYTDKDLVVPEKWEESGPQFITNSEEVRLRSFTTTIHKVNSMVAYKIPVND

binding result: binds
B1: GST-Cdc20^N151 (first 151 amino acids of human Cdc20), wild type (domain or fragment)
chain: MAQFAFESDLHSLLQLDAPIPNAPPARWQRKAKEAAGPAPSPMRAANRSHSAGRTPGRTPGKSSSKVQTTPSKPGGDRYIPHRSAAQMEVASFLLSKENQPENSQTPTKKEHQKAWALNLNGFDVEEAKILRLSGKPQNAPEGYQNRLKVL
